This note sets out measurements from patent publication US20220204610A1, “PROTEIN BINDERS FOR IRHOM2” (NEW YORK SOCIETY FOR THE RELIEF OF THE RUPTURED AND …, priority 2019, published 2022).

This experiment has as its system LPS-induced release of endogenous TNFα from human THP-1 macrophage cells. Briefly: ELISA-based TNFα release assay with purified antibody (Example 11). It is filed as cell-based. The settings on record: antibody at 10 μg/ml final; LPS 50 ng/ml, 2 hours. As for the experimental part: In the following study, ELISA-based TNFα release assays were performed to verify the inhibitory effects of the purified antibody 4H8-E3 of the invention on LPS-induced release of endogenous TNFα from human THP-1 macrophage cells.
In brief, on day 1, Nunc black MaxiSorp® 96-well plates (Thermo Fisher Scientific, USA) were coated overnight with 100 μl per well of mouse anti-human TNFα capture antibody (provided as part of the DuoSet ELISA kit) at 4 μg/ml TBS at 4° C. On day 2, the capture antibody solution was removed and MaxiSorp® plates were blocked with 300 μl per well of TBS, 1% BSA at room temperature for 3 hours. […] Using an infinite M1000 PRO (Tecan Group, Switzerland) microplate reader, the fluorescence of each well was collected at an excitation wavelength of 435 nm and an emission wavelength of 555 nm.
On the technique in general: An ELISA detects its analyte on a solid surface through an enzyme-linked reagent.

B1: 4H8-E3: Mouse IgM monoclonal antibody against the human iRhom2 juxtamembrane domain adjacent to TMD1; HC VD SEQ ID NO 33, LC VD SEQ ID NO 40 (antibody, V domains shown)
VH: EVQLQQSGPELVKPGASVKISCKASGYTFTDYYMNWVKQSHGKSLEWIGDINPNNGGTSYNQKFKGKATLTVDKSSNTAYMEFRSLTSEDSAVYYCARRGYYGVDYWGQGTTLTVSS
VL: NIVMTQSPKSMSMSVGERVTLNCKASENVGTYVSWYQQKPEQSPKLLIFGASNRYTGVPDRFIGSGFATDFTLTISSVQAEDLADYHCGQSYSYPYTFGGGTKLEIK
modifications: IgM constant regions; antibody sequence
On to B1, for which the “inhibition of LPS-induced release of TNFα from THP-1 cells” value turned out to be 62.6%.
